Test results from paper PMC5183593, “Conformational Rigidity within Plasticity Promotes Differential Target Recognition of Nerve Growth Factor” (Frontiers in Molecular Biosciences, 2016).

Molecular target: the molecule itself
Test: NMR relaxation (T1, T2, heteronuclear NOE); 15N relaxation at 600 MHz and 30°C; correlation time 14.8 ns

B1: recombinant mouse Nerve Growth Factor (mNGF) (natural protein, UniProt P01139 122-241, looked up)
chain: SSTHPVFHMGEFSVCDSVSVWVGDKTTATDIKGKEVTVLAEVNINNSVFRQYFFETKCRASNPVESGCRGIDSKHWNSYCTTTHTFVKALTTDEKQAAWRFIRIDTACVCVLSRKATRRG
modifications: 15N or 15N-13C isotope labeled
notes: Nerve Growth Factor (beta-NGF), mouse, mature form cut from the precursor proNGF; 118 amino acids per protomer (S1 to residue 118), non-covalent homodimer of 26 kDa; numbers count on: the mature protein; Expression host and the details of the construct are in the Supplementary Information and in Paoletti et al., 2011; also called mouse NGF
In the case of B1, the “stoichiometry N” value is reported as 2.
